# Experimental data: the supplement of paper PMC9112550, “Optimization of the antimicrobial peptide Bac7 by deep mutational scanning” (BMC Biology, 2022)
# System: Escherichia coli TOP10
# Assay: shrunken log2 fold change of peptide-encoding DNA abundance (4.5 h post-induction vs induction); higher = less antimicrobial activity (less host growth inhibition)
# Conditions: time post-induction: 4.5 h; library: site-saturation at positions 5, 18, 19, 20
# 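Also: peptides expressed intracellularly from a pBAD plasmid library in pooled LB shake-flask culture, induced with 0.3% L-arabinose, DNA abundance read by NGS, three biological replicates, DESeq2 with apeglm shrinkage.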
row,Sequence,shrunken log2 fold change
1,RRIRRRPPRLPRPRPRPECPPRP,0.176
2,RRIRRRPPRLPRPRPRPECTPRP,0.517
3,RRIRRRPPRLPRPRPRPEDDPRP,1.11
4,RRIRRRPPRLPRPRPRPEEDPRP,-0.0235
5,RRIRRRPPRLPRPRPRPEFVPRP,-0.0836
6,RRIRRRPPRLPRPRPRPEGSPRP,0.223
7,RRIRRRPPRLPRPRPRPEHDPRP,0.356
8,RRIRRRPPRLPRPRPRPEHIPRP,-0.13
9,RRIRRRPPRLPRPRPRPEHLPRP,0.242
10,RRIRRRPPRLPRPRPRPEIKPRP,0.27
11,RRIRRRPPRLPRPRPRPEIQPRP,0.0536
12,RRIRRRPPRLPRPRPRPELSPRP,0.0649
13,RRIRRRPPRLPRPRPRPEMLPRP,0.0638
14,RRIRRRPPRLPRPRPRPEMQPRP,0.114
15,RRIRRRPPRLPRPRPRPENVPRP,-0.0722
16,RRIRRRPPRLPRPRPRPEPEPRP,0.837
17,RRIRRRPPRLPRPRPRPEPGPRP,0.587
18,RRIRRRPPRLPRPRPRPEPLPRP,0.137
19,RRIRRRPPRLPRPRPRPEPVPRP,0.367
20,RRIRRRPPRLPRPRPRPEQGPRP,0.0344

row,Sequence,shrunken log2 fold change
1,RRIRRRPPRLPRPRPRPESCPRP,0.763
2,RRIRRRPPRLPRPRPRPETKPRP,0.511
3,RRIRRRPPRLPRPRPRPETTPRP,1.09
4,RRIRRRPPRLPRPRPRPEYNPRP,-0.103
5,RRIRRRPPRLPRPRPRPEYPPRP,-0.137
6,RRIRRRPPRLPRPRPRPEYQPRP,0.119
7,RRIRRRPPRLPRPRPRPFAPPRP,0.368
8,RRIRRRPPRLPRPRPRPFARPRP,0.217
9,RRIRRRPPRLPRPRPRPFEVPRP,0.0871
10,RRIRRRPPRLPRPRPRPFFTPRP,0.501
11,RRIRRRPPRLPRPRPRPFGDPRP,-0.0397
12,RRIRRRPPRLPRPRPRPFIRPRP,-0.326
13,RRIRRRPPRLPRPRPRPFIYPRP,-0.194
14,RRIRRRPPRLPRPRPRPFKEPRP,0.00168
15,RRIRRRPPRLPRPRPRPFKQPRP,-0.182
16,RRIRRRPPRLPRPRPRPFKTPRP,-0.0587
17,RRIRRRPPRLPRPRPRPFKYPRP,-0.252
18,RRIRRRPPRLPRPRPRPFMHPRP,0.0444
19,RRIRRRPPRLPRPRPRPFNIPRP,-0.491
20,RRIRRRPPRLPRPRPRPFNNPRP,0.221

row,Sequence,shrunken log2 fold change
1,RRIRRRPPRLPRPRPRPFNQPRP,-0.0554
2,RRIRRRPPRLPRPRPRPFPSPRP,0.114
3,RRIRRRPPRLPRPRPRPFPVPRP,0.271
4,RRIRRRPPRLPRPRPRPFQGPRP,-0.0527
5,RRIRRRPPRLPRPRPRPFRAPRP,0.251
6,RRIRRRPPRLPRPRPRPFSEPRP,-0.0505
7,RRIRRRPPRLPRPRPRPFTPPRP,-0.0158
8,RRIRRRPPRLPRPRPRPFVKPRP,-0.373
9,RRIRRRPPRLPRPRPRPFVVPRP,0.0981
10,RRIRRRPPRLPRPRPRPFWLPRP,0.231
11,RRIRRRPPRLPRPRPRPFYMPRP,-0.198
12,RRIRRRPPRLPRPRPRPGAAPRP,0.866
13,RRIRRRPPRLPRPRPRPGAEPRP,2.68
14,RRIRRRPPRLPRPRPRPGAPPRP,0.891
15,RRIRRRPPRLPRPRPRPGATPRP,0.74
16,RRIRRRPPRLPRPRPRPGEMPRP,0.122
17,RRIRRRPPRLPRPRPRPGEQPRP,0.301
18,RRIRRRPPRLPRPRPRPGFNPRP,0.0515
19,RRIRRRPPRLPRPRPRPGFPPRP,3.88
20,RRIRRRPPRLPRPRPRPGKRPRP,0.363
